# Assays:
# [1] = test system: engineered MS26++ endonuclease (I-CreI-based) (synthetic construct (Chlamydomonas reinhardtii I-CreI derived)?); assay: cell_activity; details: 15 mutations among 344 T0 maize plants as printed; Agrobacterium
# [2] = molecular target: T1, engineered MS26+ endonuclease, intron-containing gene (ST-LS1 intron) (synthetic construct (Chlamydomonas reinhardtii I-CreI derived)?) (UniProt P05725); assay: cell_activity; details: 3 of 257 T0 maize plants
# T1 sequence: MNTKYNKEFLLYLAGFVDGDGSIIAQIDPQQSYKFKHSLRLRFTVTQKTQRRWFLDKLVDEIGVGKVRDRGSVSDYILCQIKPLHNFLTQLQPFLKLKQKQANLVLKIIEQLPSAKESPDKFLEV
sequence,measurement,setting,value
GATGGTGACGTACGTGCCCTAC (double strand) [TS-MS26 target site (maize MS26 exon 5)],activity (% T0 plants mutated),[1],5.8
same,activity (% T0 plants mutated),[2],1.2
